According to paper PMC8346855 (Proceedings of the National Academy of Sciences of the …, 2021):
Positions count from the first letter of the chain named.

B1: nanobody 80 (VHH)
VHH: QVQLQESGGGLVQAGGSLRLSCAASGSIFSINTMGWYRQAPGKQRELVAAIHSGGSTNYANSVKGRFTISRDNAANTVYLQMNSLKPEDTAVYYCNVKDYGAVLYEYDYWGQGTQVTVSS
notes: nanobody 80; also called Nb80; NB80; not shown: His6, C-terminal, kept
B2: mini-Go truncated by its last five residues (domain or fragment)
chain: GIEKNLKEDGISAAKDVKLLLLGADNSGKSTIVKQMKIIHGGSGGSGGTTGIVETHFTFKNLHFRLFDVGGQRSERKKWIHCFEDVTAIIFCVDLSDYNRMHESLMDFDSICNNKFFIDTSIILFLNKKDLFGEKIKKSPLTICFPEYTGPNTYEDAAAYIQAQFESKNRSPNKEIYCHMTCATDTNNAQVIFDAVTDIIIANNLR
notes: mGo (Dm6) without its last five residues GCGLY; also called mGo_Δ5; source: E. coli, purified (same protocol as the mGα proteins); not shown: His tag, N-terminal, cleaved
B3: mini-Go (domain or fragment)
chain: GIEKNLKEDGISAAKDVKLLLLGADNSGKSTIVKQMKIIHGGSGGSGGTTGIVETHFTFKNLHFRLFDVGGQRSERKKWIHCFEDVTAIIFCVDLSDYNRMHESLMDFDSICNNKFFIDTSIILFLNKKDLFGEKIKKSPLTICFPEYTGPNTYEDAAAYIQAQFESKNRSPNKEIYCHMTCATDTNNAQVIFDAVTDIIIANNLRGCGLY
notes: thermostabilized truncated form of the Gαo subunit with the GTPase domain, lacking the α-helical domain; also called mGo; source: E. coli, purified (Ni Sepharose, TEV cleavage, reverse Ni-NTA, gel filtration); not shown: His tag, N-terminal, cleaved
B4: mini-Gq (domain or fragment)
chain: GIEKQLQKDKQVYRATHRLLLLGADNSGKSTIVKQMRILHGGSGGSGGTSGIFETKFQVDKVNFHMFDVGGQRDERRKWIQCFNDVTAIIFVVDSSDYNRLQEALNDFKSIWNNRWLRTISVILFLNKQDLLAEKVLAGKSKIEDYFPEFARYTTPEDATPEPGEDPRVTRAKYFIRDEFLRISTASGDGRHYCYPHFTCAVDTENARRIFNDCKDIILQMNLREYNLV
notes: engineered from mGs (Dm5) by nine mutations on the α5-helix that correspond to residues of Gq; only residues of the α5-helix are those of Gq; also called mGq; source: E. coli, purified (Ni Sepharose, TEV cleavage, reverse Ni-NTA, gel filtration); not shown: His tag, N-terminal, cleaved
B5: mini-Gi (domain or fragment)
chain: B4 chain with C214V, K215T, L219I, Q220K, E225D, Y226C, N227G, V229F
notes: engineered from mGs (Dm5) by seven mutations on the α5-helix that correspond to residues of Gi; only residues of the α5-helix are those of Gi; also called mGi; source: E. coli, purified (Ni Sepharose, TEV cleavage, reverse Ni-NTA, gel filtration); not shown: His tag, N-terminal, cleaved
B6: mini-Gs (domain or fragment)
chain: B4 chain with K215R, L219Q, Q220R, N222H, E225Q, N227E, V229L
notes: thermostabilized truncated Gαs with the GTPase domain, lacking the α-helical domain; also called mGs; source: E. coli, purified (Ni Sepharose, TEV cleavage, reverse Ni-NTA, gel filtration); not shown: His tag, N-terminal, cleaved
B7: nanobody 80 (VHH)
VHH: B1 VHH
notes: also called Nb80; a Gs mimetic nanobody; source: purified

Columns and labels:
Conditions in all cases: both partners purified
[1] = target: T1, thermostabilized turkey beta-1 adrenergic receptor (turkey); assay: cross-linking + other: high-mass MALDI-MS; competition: Nb80 (0 to 13.3 µM) added to iso-β1AR (2.5 µM) and mGo (3.0 µM), 1 h at room temperature, BS(PEG)9 cross-linking, β-Gal as internal standard; read-out β1AR•mGo formation
T1 construct: turkey beta-1 adrenergic receptor, thermostabilized, truncated at the C terminus and intracellular loop 3; the states are told apart by the assay; also called β1AR; apo-β1AR

[2] = target: T1, thermostabilized turkey beta-1 …; assay: cross-linking + other: high-mass MALDI-MS; isoprenaline-bound β1AR (iso-β1AR), 5 µM, mixed with partner protein at various concentrations, 1 h at room temperature, BS(PEG)9 cross-linking, 0.6 µM β-Gal as internal standard; 20 mM Hepes pH 7.5, 40 mM NaCl, 0.01% LMNG; Ka = 1/Kd
[3] = target: T1, thermostabilized turkey beta-1 …; assay: cross-linking + other: high-mass MALDI-MS; ligand-free (apo) GPCR, 5 µM, mixed with partner protein at various concentrations, 1 h at room temperature, BS(PEG)9 cross-linking, β-Gal as internal standard; 20 mM Hepes pH 7.5, 40 mM NaCl, 0.01% LMNG; Ka = 1/Kd
[4] = target: T1, thermostabilized turkey beta-1 …; assay: cross-linking + other: high-mass MALDI-MS; formation of β1AR•mGo with the titration of mGo, reading of EC50 (Graphpad); ligand state of β1AR not told for this curve
[5] = target: T2, thermostabilized turkey beta-1 adrenergic receptor (Meleagris gallopavo (turkey), stabilised); assay: cross-linking; competition: 2.5 μM β1AR, 3.0 μM mGo, increasing concentrations of Nb80; BS(PEG)9, high-mass MALDI-MS
T2 construct: beta-1 adrenergic receptor, turkey, thermostabilized, truncated at the C terminus and intracellular loop 3; Not treated with kinases; Small-molecule ligand states are told apart by the assay; also called β1AR; apo-β1AR; source: purified

[6] = target: T2, thermostabilized turkey beta-1 …; assay: cross-linking; Kd by titrating the partner protein against isoprenaline-bound β1AR; 20 mM Hepes pH 7.5, 40 mM NaCl, 0.01% lauryl maltose neopentyl glycol; BS(PEG)9, high-mass MALDI-MS, normalised to β-galactosidase

T1 sequence (chain, as listed by the source): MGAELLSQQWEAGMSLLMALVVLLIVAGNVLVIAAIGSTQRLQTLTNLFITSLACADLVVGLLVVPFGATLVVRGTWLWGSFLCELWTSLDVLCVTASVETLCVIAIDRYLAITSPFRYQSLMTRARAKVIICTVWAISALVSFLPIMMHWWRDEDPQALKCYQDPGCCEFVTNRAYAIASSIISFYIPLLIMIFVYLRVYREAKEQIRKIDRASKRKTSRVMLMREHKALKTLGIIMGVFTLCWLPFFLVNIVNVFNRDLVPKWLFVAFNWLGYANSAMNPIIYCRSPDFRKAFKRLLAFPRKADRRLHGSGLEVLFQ
T2 sequence (P07700 other isoform, or with tags, fused parts or gaps, change not shown): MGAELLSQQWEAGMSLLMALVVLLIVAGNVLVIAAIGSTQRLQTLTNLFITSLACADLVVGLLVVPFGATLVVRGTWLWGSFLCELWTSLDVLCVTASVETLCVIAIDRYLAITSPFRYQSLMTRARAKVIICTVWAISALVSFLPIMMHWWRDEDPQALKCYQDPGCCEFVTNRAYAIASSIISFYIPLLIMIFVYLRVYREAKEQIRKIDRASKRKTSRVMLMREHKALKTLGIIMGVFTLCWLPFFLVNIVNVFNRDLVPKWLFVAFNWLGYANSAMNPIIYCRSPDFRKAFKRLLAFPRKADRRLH

| Binder | Ka [2] | further results |
| --- | --- | --- |
| B1 | 4.76e+06 M⁻¹ | IC50 [1]: 4610 nM |
| B2 | 4.17e+06 M⁻¹ | Ka [3]: 3.57e+06 M⁻¹ |
| B3 | 4e+06 M⁻¹ | EC50 [4]: 1580 nM; Ka [3]: 4e+06 M⁻¹ |
| B4 | 810000 M⁻¹ |  |
| B5 | 620000 M⁻¹ |  |
| B6 | 2.86e+06 M⁻¹ |  |
| B7 |  | Ki [5]: 1570 ± 240 nM; Kd [6]: 210 nM |
